# From US20230028899A1
# Target: CD19 on CD19+ Raji B cells (UniProt P15391)
# Experiment: cell-based or functional assay
# Chain of UniProt P15391 (P15391 20-556 limits assumed): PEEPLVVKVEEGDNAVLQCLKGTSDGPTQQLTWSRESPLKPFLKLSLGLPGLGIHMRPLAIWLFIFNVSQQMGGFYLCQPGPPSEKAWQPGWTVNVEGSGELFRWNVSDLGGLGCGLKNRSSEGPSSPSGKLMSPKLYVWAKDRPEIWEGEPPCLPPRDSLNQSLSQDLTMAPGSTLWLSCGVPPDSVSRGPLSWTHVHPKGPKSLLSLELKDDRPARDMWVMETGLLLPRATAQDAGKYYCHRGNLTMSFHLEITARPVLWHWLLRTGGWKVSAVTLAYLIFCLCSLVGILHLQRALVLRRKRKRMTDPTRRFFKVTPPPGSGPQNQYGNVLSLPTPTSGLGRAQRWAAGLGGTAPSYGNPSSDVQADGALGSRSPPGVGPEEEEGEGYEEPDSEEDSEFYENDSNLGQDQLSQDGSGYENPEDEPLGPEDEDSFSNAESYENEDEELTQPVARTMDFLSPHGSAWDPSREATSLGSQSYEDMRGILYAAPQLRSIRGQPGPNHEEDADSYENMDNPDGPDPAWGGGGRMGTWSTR
substance,measurement,value
"anti-CD19 CAR (anti-CD19 CAR cassette as described in WO 2012/079000), expressed on transduced CD4+ T-cells","GFP fluorescence of transduced T-cells (GFP-RDE1, MinP), 24 h co-culture, flow cytometry",6.5%
same,"activated cells in the population (CD25/CD69 staining), 24 h co-culture, GFP-RDE1 construct",0.9 to 84.8%
same,"activated cells in the population (CD25/CD69 staining), 24 h co-culture, GFP-RDE2.1 construct",3.9 to 12.1%
same,"fold change in IL-12 expression (ELISA), NFAT promoter, 3'-UTR not responsive to CAR stimulation",50 fold
same,"fold change in IL-12 expression (ELISA), NFAT promoter, RDE1 (Gold1)",168 fold
same,"fold change in IL-12 expression (ELISA), minP promoter, RDE1 (Gold1)",6.3 fold
same,"fold increase in bioluminescence, MinP promoter, RDE1",4.1 fold
same,"fold increase in bioluminescence, MinP promoter, RDE2",1.8 fold
same,"fold increase in bioluminescence, MinP promoter, RDE3",1.4 fold
same,"fold increase in bioluminescence, NFAT promoter, RDE1",8.5 fold
same,"fold increase in bioluminescence, NFAT promoter, RDE2",3.1 fold
same,"fold increase in bioluminescence, NFAT promoter, RDE3",1.3 fold
